In experiment [1] the target is MPXV Bio-M2 (site-specifically biotinylated MPXV Avi-M2) (monkeypox virus (Clade I), UniProt Q8V554 18-220). Nature of the experiment: BLI; […] (10 ug/mL) […]; 10 mM HEPES pH 7.4, 150 mM NaCl, 3 mM EDTA, 1% BSA; 1:1 Langmuir model, […]. The settings on record: both partners purified. In general terms: BLI is a label-free optical method that tracks binding on a fibre tip over time.

The target in experiment [2] is T1, MPXV M2 (monkeypox virus M2 protein), His-tagged, wild type (monkeypox virus (Clade I), UniProt Q8V554 18-220).
T1 construct: copies: 6 or 7
Nature of the experiment: BLI; […] (10 ug/mL) […]; 10 mM HEPES pH 7.4, 150 mM NaCl, 3 mM EDTA, 0.05% Tween, 1% BSA; 25 °C; 1:1 model; […]. The note with it: both partners purified.

B1: human B7.1 ectodomain, His-tagged (domain or fragment)
chain: VIHVTKEVKEVATLSCGHNVSVEELAQTRIYWQKEKKMVLTMMSGDMNIWPEYKNRTIFDITNNLSIVILALRPSDEGTYECVVLKYEKDAFKREHLAEVTLSVKADFPTPSISDFEIPTSNIRRIICSTSGGFPEPHLSWLENGEELNAINTTVSQDPETELYAVSSKLDFNMTTNHSFMCLIKYGHLRVNQTFNWNTT
notes: also called hB7.1; CD80
For the molecule B1, in experiment [1], the Kd worked out at 95.3 nM and the “t1/2 (dissociation half-life time)” value amounted to 1.71 min.

B2: human B7.1 ectodomain fused to human Fc (Fc fusion, UniProt P33681-1 35-234, looked up)
chain: B1 chain
notes: also called hB7.1-Fc; hB7.1-hFc; not shown: Fc (human), C-terminal, kept
B2 displayed a Kd in experiment [2] of 0.15 nM.

B3: human B7.2 ectodomain, His-tagged (domain or fragment)
chain: LKIQAYFNETADLPCQFANSQNQSLSELVVFWQDQENLVLNEVYLGKEKFDSVHSKYMGRTSFDSDSWTLRLHNLQIKDKGLYQCIIHHKKPTGMIRIHQMNSELSVLANFSQPEIVPISNITENVYINLTCSSIHGYPEPKKMSVLLRTKNSTIEYDGVMQKSQDNVTELYDVSISLSVSFPDVTSNMTIFCILETDKTRLLSSPFSIELED
notes: also called hB7.2; CD86
With B3, in experiment [1], binding was put at a Kd of 388 nM and the “t1/2 (dissociation half-life time)” value is 0.345 min.

B4: human B7.2 ectodomain fused to human Fc (Fc fusion)
chain: B3 chain
notes: also called hB7.2-Fc; hB7.2-hFc; not shown: Fc (human), C-terminal, kept
Take B4: binding in experiment [2] was characterised by a dissociation constant (Kd) of 0.05 nM.

The Kd is the concentration at which binding is half-saturated.
